Measured values taken from patent publication US11453711B2, “Fusion proteins of GLP-1 and GDF15 and conjugates thereof” (BEIJING QL BIOPHARMACEUTICAL CO., LTD., priority 2019, dated 2022).

How the values were obtained:
[1] = Body weight and food intake in C57BL/6 mice, fusion protein conjugates, 30 nmol/kg daily 10 days; assay type: in vivo
Summary of the method: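 Male C57BL/6 mice received fusion protein conjugates by daily subcutaneous injection, with dosing running from Day 1 to Day 10. Body weight was recorded daily per animal and food intake daily per group. Body weight reduction was expressed relative to vehicle percent loss from Day 1. Cumulative food intake reduction was expressed as percent decrease versus vehicle.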

[2] = Body weight and food intake in lean C57BL/6 mice, lysine conjugated compounds, 15 nmol/kg daily sc 14 days; assay type: in vivo; conditions: for Body weight reduction at 15 nmol/kg (% reduction compared to vehicle)(Day11) / Cumulative food intake reduction at 15 nmol/kg (% reduction compared to vehicle)(Day11): C57 mice, 15 nmol/kg daily sc
Method: FIGS. 1A-1F show In vivo activities of fusion proteins. To evaluate the body weight and food intake effects of the fusion proteins, 10 week old male C57BL/6J mice were dosed everyday subcutaneously with 15 nmol/kg protein for 14 days. Food intake and body weight were measured daily. FIGS. 1A and 1B show body weight loss upon protein treatments from Day1 to Day15. […] FIGS. 1D and 1E show cumulative food intake with protein treatments from Day1 to Day15. […] Vehicle: 1.42 mg/mL disodium phosphate dihydrate, 14 mg/mL propylene glycol pH7.4. Data are expressed as mean values and standard error (SEM) for FIGS. 1A, 1B and 1C. n=5 for each treatment group. For FIGS. 1D, 1E and 1F, a pooled food intake was measured for each treatment group.
10 week old male C57BL/6 mice were injected everyday subcutaneously with 15 nmol/kg of the fusion protein conjugates (i.e., MLC002, MLC 004, MLC 005, MLC 006, MLC 007, MLC 008, and MLC 009) for 14 days. Food intake and body weight were measured daily and five animals were used for each treatment group. Body weight (BW) was monitored for each individual animal, but food intake for each group animals was measured together. Day 1 and Day 14 are first day and last day of molecule dosage. % BW loss=100*(BW on Day n-BW on Day 1)/(BW on Day 1). Cumulative food intake on Day n represents sum of food intake from Day 1 to Day n. Data are indicated as mean values and standard error (SEM) or pooled values. Statistical analysis was performed by One-way ANOVA. Body weight reduction on Day 11 is calculated by −1*(% BW loss−% BW loss of vehicle group); Cumulative food intake reduction is calculated by −100*(cumulative food intake-cumulative food intake of vehicle)/cumulative food intake of vehicle.

[3] = PK study in non-human primates, single sc dose 5 nmol/kg, plasma ELISA; conditions: monkey, single sc dose 5 nmol/kg; for Cmax: read-out: Cmax (nmol/L)
Method: Plasma samples were collected pre-dose (−5 min), 2 hr, 4 hr, 6 hr, 8 hr, 24 hr, 48 hr, 72 hr, 96 hr, 120 hr, 144 hr, 216 hr, 288 hr, 360 hr, 432 hr and 504 hr after the injection. The concentrations of the fusion protein conjugates in the plasma were measured by an ELISA assay which has immunoreactivity towards both GDF15 and intact N-terminal of GLP-1. Based on the graph showing plasma concentration of each protein versus time after subcutaneous injection, the pharmacokinetic parameters (including Tmax, Cmax, T1/2, AUC) were calculated by WinNonlin software.

[4] = Pharmacokinetic measurement in mouse, single sc dose 30 nmol/kg, plasma ELISA; conditions: for Cmax: read-out: Cmax (nmol/L), single sc dose 30 nmol/kg; for AUC0-24 h / Terminal t1/2 / Tmax: single sc dose 30 nmol/kg
Method: Each fusion protein was injected subcutaneously into C57BL/6 mice (n=3/group) once and plasma samples were collected at designed time points and analyzed by ELISA method. Plasma concentrations are indicated as mean values and standard error (SEM).
6-8 week old male C57BL/6 mice were administrated in a single subcutaneous dose of 30 nmol/kg of the fusion protein conjugates or unconjugated fusion proteins (i.e., MLC002, MLC004, MLC005, MLC006, MLC007, MLC008, MLC009, MLC013, MLC017, MLC047, MLC074, MLC075, MLC089, MLC093, MLC003 and MLC019) (n=3/group). Plasma samples were collected pre-dose (−5 min), 0.5 hr, 1 hr, 2 hr, 4 hr, 6 hr, 8 hr, 12 hr, 24 hr, 48 hr and 72 hr after the injection. The concentrations of the fusion protein conjugates in the plasma were measured by an ELISA assay which has immunoreactivity towards both GDF15 and intact N-terminal of GLP-1. Based on the graph showing plasma concentration of each protein versus time after subcutaneous injection, the pharmacokinetic parameters (including Tmax, Cmax, T1/2, AUC) were calculated by WinNonlin software.

[5] = Efficacy in db/db mice: body weight, food intake, glucose, biomarkers, daily sc 14 days; assay type: in vivo
Method: (§1) FIGS. 4A-4D show In vivo efficacy in db/db mice. To evaluate the body weight, food intake and glucose effects of the fusion proteins, 8 week old male db/db mice were dosed everyday subcutaneously with 30 nmol/kg protein for 14 days. […] Compared to Vehicle control: ***, p<0.001. Data are expressed as mean values and standard error (SEM) for FIGS. 4A, 4B and 4D. n=5 for each treatment group. For FIG. 4C, a pooled food intake was measured for each treatment group.
FIGS. 5A-5F show In vivo efficacy in db/db mice. To evaluate the body weight, food intake and glucose effects of the fusion proteins, 8 week old male db/db mice were dosed everyday subcutaneously with different concentrations of proteins for 14 days. FIGS. 5A and 5B show body weight loss upon protein treatments from Day1 to Day15. […] Compared to Vehicle control: ***, p<0.001; **, p<0.01; *, p<0.05; ns, non-statistically significant; FIGS. 5D and 5E show cumulative food intake with protein treatments from Day1 to Day15. […] Compared to Vehicle control: ***, p<0.001**, p<0.01; *, p<0.05; ns, non-statistically significant. Data are expressed as mean values and standard error (SEM) for FIGS. 5A, 5B, 5C and 5F. n=5 for each treatment group. For FIGS. 5D and 5E, a pooled food intake was measured for each treatment group.
as §1, with “8A-8I” for “4A-4D”, “different concentrations of proteins” for “30 nmol/kg protein”, “FIGS. 8D-8F show body weight loss upon dose titrations of fusion protein conjugates. […]” for “Compared to Vehicle control: ***, p<0.001.”, “8A” for “4A, 4B”, “8C-I.” for “4D.”, “8B,” for “4C,”
Selected fusion protein conjugates are assessed in disease animal models (DIO mice, db/db mice, etc.) to determine body weight, food intake, glucose efficacy with dose responses. Some biomarkers are also measured, including fasting insulin, plasma triglyceride, cholesterol, liver triglyceride, and inflammatory biomarkers (ALT, AST and CRP).
8 week old male db/db mice were injected everyday subcutaneously with designated proteins for 14 days. Age matched lean mice were used as control. Food intake and body weight were measured daily and five animals were used for each treatment group. Fasting glucose were tested on designated days as shown in each figure. Body weight was monitored for each individual animal, but food intake for each group animals was measured together. Day 1 and Day 14 are first day and last day of molecule dosage. % BW loss=100*(BW on Day n-BW on Day 1)/(BW on Day 1). Cumulative food intake on Day n represents sum of food intake from Day 1 to Day n. Terminal blood was collected and EDTA-2K plasma was prepared and frozen at −80° C. for biomarker measurement. Liver was also collected and frozen in liquid nitrogen and store at −80° C. Data are indicated as mean values and standard error (SEM) or pooled values. Statistical analysis was performed by One-way ANOVA.

[6] = Efficacy in DIO mice, daily sc 28 days; assay type: in vivo, DIO male C57BL/6 mice
Method: FIGS. 6A-6E show In vivo efficacy in DIO mice. To evaluate the body weight, food intake and glucose effects of the fusion proteins, 17 week old DIO mice (C57BL/6 mice on high fat diet for 13 weeks) were dosed everyday subcutaneously with different concentrations of proteins for 28 days. […] FIGS. 6D and 6E show body weight change with dose titrations of MLC089 and MLC093 at 3, 10 and 30 nmol/kg. Data are expressed as mean values and standard error (SEM) for FIGS. 6A, 6C, 6D and 6E. n=5 for each treatment group. For FIG. 6B, a pooled food intake was measured for each treatment group.
17 week old DIO male C57BL/6 mice (˜45 g) were injected everyday subcutaneously with designated proteins (i.e., MLC089, MLC093) for 28 days. Food intake and body weight were measured daily and five animals were used for each treatment group. Fasting glucose was also monitored on designated days. Body weight and glucose were monitored for each individual animal, but food intake for each group animals was measured together. Day 1 and Day 28 are first day and last day of molecule dosage. % BW loss=100*(BW on Day n-BW on Day 1)/(BW on Day 1). Cumulative food intake on Day n represents sum of food intake from Day 1 to Day n. Terminal blood was collected and EDTA-2K plasma was prepared and frozen at −80 C for biomarker measurement. Liver was also collected and frozen in liquid nitrogen and store at −80 C. Data are indicated as mean values and standard error (SEM) or pooled values.

[7] = 30 nmol/kg, FIG. 8A-C, versus Semaglutide, Tirzepatide and MLC014

| Molecule | Body weight reduction at 30 nmol/kg (% reduction compared to vehicle)(Day11) [1] | Cumulative food intake reduction at 30 nmol/kg (% reduction compared to vehicle)(Day11) [1] | Body weight reduction at 15 nmol/kg (% reduction compared to vehicle)(Day11) [2] | Cumulative food intake reduction at 15 nmol/kg (% reduction compared to vehicle)(Day11) [2] | AUC0-96 h [3] | Terminal t1/2 [3] | Tmax [3] | Cmax [3] | Cmax [4] | AUC0-24 h [4] | Terminal t1/2 [4] | Tmax [4] | further results |
| --- | --- | --- | --- | --- | --- | --- | --- | --- | --- | --- | --- | --- | --- |
| Semaglutide [reference compound] | 2.6% | 20.9% | 7.2% | 23.2% |  |  |  |  |  |  |  |  |  |
| MLC004: fusion polypeptide SEQ ID NO: 251 conjugated with Moiety A at 26K of GLP-1 (conjugate, Moiety A conjugated at K26) HGEGTFTSDVSSYLEEQAAKEFIAWLVRGGGGQEPGAQPGQEPGAQPGQEPGAQPGQEPGAQPGQEPGAQPGQEPGAQPGAQPGAQPGAQPGAQPGAQPGAQPGAQPGAQPARQGDHCPLGPGRCCRLHTVRASLEDLGWADWVLSPREVQVTMCIGACPSQFRAANLHAQIKTSLHRLRPDTVPAPCCVPASYNPMVLIQRTDTGVSLQTYDDLLARDCHCI | 18.3% | 35.0% | 13.9% | 21.8% | 0.79 µM·h | 13 h | 8 h | 32.1 nmol/L | 15.1 nmol/L | 0.1745 µM·h | 7.4 h | 3.3 h | BW reduction ([2]; 15 nmol/kg daily sc 14 days, versus Semaglutide): statistically significantly enhanced BW loss efficacy than Semaglutide |
| MLC089: fusion polypeptide SEQ ID NO: 379 conjugated with Moiety B at 39C of Linker (conjugate, Moiety B conjugated at linker Cys39) HGEGTFTSDVSSYLEEQAAKEFIAWLVRGGGGAQPGAQPGAQPGAQPGAQPGAQPGAQPGAQPGQEPGQCPGQEPGAQPGQEPGAQPGQEPGAQPGQEPGAQPGQEPGAQPARQGDHCPLGPGRCCRLHTVRASLEDLGWADWVLSPREVQVTMCIGACPSQFRAANLHAQIKTSLHRLKPDTVPAPCCVPASYNPMVLIQKTDTGVSLQTYDDLLAKDCHCI | 24.6% | 29.9% |  |  | 3.413 µM·h | 54 h | 8 h | 70.5 nmol/L | 116 nmol/L | 1.9822 µM·h | 14.7 h | 10.7 h | body weight loss [5, 7]: more body weight loss, food intake suppression and glycemic control; food intake suppression [5, 7]: more body weight loss, food intake suppression and glycemic control; glycemic control [5, 7]: more body weight loss, food intake suppression and glycemic control; efficacy ([5]; FIG. 8 study): better efficacy than Semaglutide and GDF15 derivative (MLC014); body weight reduction efficacy ([6]; DIO mice, 30 nmol/kg daily 28 days, FIG. 6A): much better body weight reduction efficacy than Semaglutide and GDF15 derivative (MLC014); dose dependence of body weight reduction ([6]; DIO mice, 3, 10 and 30 nmol/kg, FIGS. 6D and 6E): dose dependent efficacy on body weight reduction; fasting glucose ([6]; DIO mice, FIG. 6C): reached similar level to Semaglutide; efficacy ([6]; DIO study, FIG. 6): better efficacy than Semaglutide and GDF15 derivative (MLC014) |
| MLC008: fusion polypeptide SEQ ID NO: 255 conjugated with Moiety A at 6K of Linker (conjugate, Moiety A conjugated at linker K6) HGEGTFTSDVSSYLEEQAAREFIAWLVRGGGGQEPGKEPGQEPGQEPGQEPGQEPGQEPGQEPGAQPGAQPARQGDHCPLGPGRCCRLHTVRASLEDLGWADWVLSPREVQVTMCIGACPSQFRAANLHAQIKTSLHRLRPDTVPAPCCVPASYNPMVLIQRTDTGVSLQTYDDLLARDCHCI |  |  | 10.9% | 19.5% |  |  |  |  | 20.8 nmol/L | 0.0822 µM·h | 4.2 h | 0.7 h |  |
